# Laboratory results reported in publication PMC5241119, “Structural snapshots of Xer recombination reveal activation by synaptic complex remodeling and DNA bending”.
# T1: XerH (Helicobacter pylori strain 26995 (as …, UniProt O25386 1-362))
# T1 sequence: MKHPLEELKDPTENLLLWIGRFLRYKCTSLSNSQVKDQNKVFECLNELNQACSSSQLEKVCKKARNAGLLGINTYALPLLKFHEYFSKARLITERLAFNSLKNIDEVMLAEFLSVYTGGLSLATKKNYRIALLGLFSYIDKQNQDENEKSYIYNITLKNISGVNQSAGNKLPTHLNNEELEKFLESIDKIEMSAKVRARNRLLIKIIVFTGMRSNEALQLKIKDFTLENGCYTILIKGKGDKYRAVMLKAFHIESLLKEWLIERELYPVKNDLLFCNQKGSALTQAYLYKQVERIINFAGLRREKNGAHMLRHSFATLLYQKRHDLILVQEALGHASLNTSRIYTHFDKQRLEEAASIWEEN
# Assays:
# [1] = molecular target: Helicobacter pylori XerH recombinase, full-length wild type (Helicobacter pylori) (UniProt O25386); assay: crystal structure; full-length wild-type XerH co-crystallised with a 30 bp difH DNA duplex (pre-cleavage synaptic complex: four XerH, two difH); protein:DNA 1.2:1; well 0.2 M NaCl, 20-25% PEG 3350; 6°C
# [2] = molecular target: Helicobacter pylori XerH recombinase, full-length wild type (Helicobacter pylori) (UniProt O25386); assay: crystal structure; XerH co-crystallised with nicked palindromic 'suicide' difHLP DNA (post-cleavage synaptic complex; two XerH and one DNA in the asymmetric unit, tetramer by crystallographic two-fold); well 0.1 M HEPES pH 7-8, 0.2 M MgCl2, 25-35% PEG 400; 6°C
# XerH [3] = molecular target: T1, XerH; assay: EMSA; 10 mM Mg2+; all complex species summed; EMSA: 25 mM HEPES pH 7.5, 100 mM NaCl, 10 mM MgCl2, 5% glycerol, 1 mM DTT, 1 mM EDTA, 1 h at 30 C, 20 nM DNA, 0-360 nM XerH; SEC complexes prepared as for crystallization (dialysed to 25 mM Na acetate pH 5.5, 200 mM NaCl, 5% glycerol, 1 mM DTT); settings: protein: recombinant; tags: His6-SUMO N-terminal, removed with SenP2; label: 5'-32P; blunt
# XerH [4] = molecular target: T1, XerH; assay: analytical SEC; EMSA: 25 mM HEPES pH 7.5, 100 mM NaCl, 10 mM MgCl2, 5% glycerol, 1 mM DTT, 1 mM EDTA, 1 h at 30 C, 20 nM DNA, 0-360 nM XerH; SEC complexes prepared as for crystallization (dialysed to 25 mM Na acetate pH 5.5, 200 mM NaCl, 5% glycerol, 1 mM DTT); settings: protein: recombinant, tags: His6-SUMO N-terminal, removed with SenP2, blunt
# XerH K290S = XerH K290S (Helicobacter pylori strain 26995 (as …, UniProt O25386 1-362, K290S)); assay: EMSA; K290S does not affect difH binding; EMSA: 25 mM HEPES pH 7.5, 100 mM NaCl, 10 mM MgCl2, 5% glycerol, 1 mM DTT, 1 mM EDTA, 1 h at 30 C, 20 nM DNA, 0-360 nM XerH; SEC complexes prepared as for crystallization (dialysed to 25 mM Na acetate pH 5.5, 200 mM NaCl, 5% glycerol, 1 mM DTT); settings: protein: recombinant; tags: His6-SUMO N-terminal, removed with SenP2; label: 5'-32P; blunt
# XerH [5] = molecular target: T1, XerH; assay: X-ray crystallography; 2.1 A; pre-cleavage, pH 5.5, no metal; EMSA: 25 mM HEPES pH 7.5, 100 mM NaCl, 10 mM MgCl2, 5% glycerol, 1 mM DTT, 1 mM EDTA, 1 h at 30 C, 20 nM DNA, 0-360 nM XerH; SEC complexes prepared as for crystallization (dialysed to 25 mM Na acetate pH 5.5, 200 mM NaCl, 5% glycerol, 1 mM DTT); settings: protein: recombinant; tags: His6-SUMO N-terminal, removed with SenP2; blunt ends, terminal G:A mismatch at strand 1 position 1 as printed; two duplexes per complex
# XerH [6] = molecular target: T1, XerH; assay: analytical SEC; no shift in retention; EMSA: 25 mM HEPES pH 7.5, 100 mM NaCl, 10 mM MgCl2, 5% glycerol, 1 mM DTT, 1 mM EDTA, 1 h at 30 C, 20 nM DNA, 0-360 nM XerH; SEC complexes prepared as for crystallization (dialysed to 25 mM Na acetate pH 5.5, 200 mM NaCl, 5% glycerol, 1 mM DTT); settings: protein: recombinant; tags: His6-SUMO N-terminal, removed with SenP2; blunt, self-complementary, 2 copies of one strand
molecule,measurement,setting,value
"Helicobacter pylori XerH recombinase, full-length wild type (from UniProt O25386 1-362) (enzyme)",stoichiometry N,[1],4
same,stoichiometry N,[2],4
"difHR 50 bp (right arm, left arm replaced by random) (dsDNA) DNA 1: CATATTTTTCCTTTTAAATTCACTGCACTTTTCAAACTTTTAAATCAAAC DNA 2: GTTTGATTTAAAAGTTTGAAAAGTGCAGTGAATTTAAAAGGAAAAATATG",Kd,XerH [3],230 nM
"difHL 50 bp (left arm, right arm replaced by random) (dsDNA) DNA 1: TAAATTCATTTAGTTATGAAAACTGCACTTAAATCAAACCATTTAAATAA DNA 2: TTATTTAAATGGTTTGATTTAAGTGCAGTTTTCATAACTAAATGAATTTA",Kd,XerH [3],180 nM
difH 30 bp (SEC) (dsDNA) DNA 1: TAGTTATGAAAACTGCACTTTTCAAACTTT DNA 2: AAAGTTTGAAAAGTGCAGTTTTCATAACTA,binding result,XerH [4],binds
difH 50 bp (dsDNA) DNA 1: TAAATTCATTTAGTTATGAAAACTGCACTTTTCAAACTTTTAAATCAAAC DNA 2: GTTTGATTTAAAAGTTTGAAAAGTGCAGTTTTCATAACTAAATGAATTTA,binding result,XerH K290S,binds
same,Kd,XerH [3],150 nM
difH 30 bp (pre-cleavage crystal) (dsDNA) DNA 1: GAGTTATGAAAACTGCACTTTTCAAACTTT DNA 2: AAAGTTTGAAAAGTGCAGTTTTCATAACTA,binding result,XerH [5],binds
"difHLP (left-arm palindrome, 30 bp) (dsDNA) DNA 1: TAGTTATGAAAACTGCAGTTTTCATAACTA DNA 2: TAGTTATGAAAACTGCAGTTTTCATAACTA",binding result,"XerH [4]; self-complementary, 2 copies of one strand",binds
"difHRP (right-arm palindrome, 30 bp) (dsDNA) DNA 1: AAAGTTTGAAAAGTGCACTTTTCAAACTTT DNA 2: AAAGTTTGAAAAGTGCACTTTTCAAACTTT",binding result,XerH [6],no binding
